Common to all, as to experiment: fluorescence polarisation; 37 °C, after the 25 °C reading ramped over 7 min to 37 °C and 2 min incubation; unlabeled Rb^P against 1.5 nM TMR-E2F1^TD or 7.5 nM TMR-E7^LxCxE; 25 mM Tris pH 8.0, 200 mM NaCl, 1 mM DTT, 0.1% Tween-20; apparent Kd
What all share (settings): both partners purified

One test has as its target T1, Rb^P T687I (human, UniProt P06400 380-788, T687I).
T1 construct: also called variant 59
T1 sequence (looked up): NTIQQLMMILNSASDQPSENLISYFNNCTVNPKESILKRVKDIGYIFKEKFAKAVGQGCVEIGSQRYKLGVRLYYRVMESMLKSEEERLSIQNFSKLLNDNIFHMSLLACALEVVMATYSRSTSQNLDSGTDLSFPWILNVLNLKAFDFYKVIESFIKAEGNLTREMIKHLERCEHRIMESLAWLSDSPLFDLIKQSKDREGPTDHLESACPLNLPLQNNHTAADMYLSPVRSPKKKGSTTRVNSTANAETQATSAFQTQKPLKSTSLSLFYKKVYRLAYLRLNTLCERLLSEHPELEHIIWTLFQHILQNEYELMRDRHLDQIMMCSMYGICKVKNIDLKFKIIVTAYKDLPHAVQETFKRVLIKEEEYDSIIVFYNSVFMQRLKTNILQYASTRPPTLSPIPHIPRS

Another test has as its target T2, Rb^P T664A (human, UniProt P06400 380-788, T664A).
T2 construct: also called variant 50
T2 sequence (looked up): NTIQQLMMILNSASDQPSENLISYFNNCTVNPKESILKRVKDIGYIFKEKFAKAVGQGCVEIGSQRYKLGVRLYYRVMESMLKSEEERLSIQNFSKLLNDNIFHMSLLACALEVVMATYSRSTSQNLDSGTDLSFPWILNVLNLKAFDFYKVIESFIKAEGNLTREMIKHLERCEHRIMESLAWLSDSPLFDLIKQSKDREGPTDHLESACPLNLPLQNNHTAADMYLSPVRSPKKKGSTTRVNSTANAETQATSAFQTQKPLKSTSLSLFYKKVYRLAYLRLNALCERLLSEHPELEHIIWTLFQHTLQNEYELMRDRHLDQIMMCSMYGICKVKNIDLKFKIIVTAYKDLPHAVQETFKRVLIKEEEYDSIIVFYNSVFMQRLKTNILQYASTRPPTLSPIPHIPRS

A further test has as its target T3, Rb^P S612P (human, UniProt P06400 380-788, S612P).
T3 construct: also called variant 39
T3 sequence (looked up): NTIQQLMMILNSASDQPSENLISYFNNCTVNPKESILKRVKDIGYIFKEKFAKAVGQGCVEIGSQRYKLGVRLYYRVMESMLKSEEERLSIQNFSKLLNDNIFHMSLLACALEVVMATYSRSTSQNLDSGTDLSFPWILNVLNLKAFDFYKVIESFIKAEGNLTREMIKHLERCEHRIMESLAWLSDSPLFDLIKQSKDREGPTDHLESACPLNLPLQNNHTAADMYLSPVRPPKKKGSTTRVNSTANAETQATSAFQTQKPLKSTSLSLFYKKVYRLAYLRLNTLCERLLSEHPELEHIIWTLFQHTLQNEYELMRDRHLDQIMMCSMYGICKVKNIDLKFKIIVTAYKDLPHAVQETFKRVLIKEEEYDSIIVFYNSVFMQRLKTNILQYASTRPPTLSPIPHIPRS

The next test deals with T4, Rb^P R741C (human, UniProt P06400 380-788, R741C).
T4 construct: also called variant 68
T4 sequence (looked up): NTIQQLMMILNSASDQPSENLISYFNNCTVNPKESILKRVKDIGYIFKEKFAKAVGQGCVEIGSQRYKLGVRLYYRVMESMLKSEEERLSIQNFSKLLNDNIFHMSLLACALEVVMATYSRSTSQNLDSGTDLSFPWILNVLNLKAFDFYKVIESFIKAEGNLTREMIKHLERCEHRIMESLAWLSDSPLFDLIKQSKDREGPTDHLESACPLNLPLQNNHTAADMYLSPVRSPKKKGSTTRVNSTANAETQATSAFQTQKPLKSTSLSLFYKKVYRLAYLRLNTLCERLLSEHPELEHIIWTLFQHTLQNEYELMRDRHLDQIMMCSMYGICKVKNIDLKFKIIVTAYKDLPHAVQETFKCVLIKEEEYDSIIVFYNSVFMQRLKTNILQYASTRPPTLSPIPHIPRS

The next test deals with T5, Rb^P E693A (human, UniProt P06400 380-788, E693A).
T5 construct: also called variant 60
T5 sequence (looked up): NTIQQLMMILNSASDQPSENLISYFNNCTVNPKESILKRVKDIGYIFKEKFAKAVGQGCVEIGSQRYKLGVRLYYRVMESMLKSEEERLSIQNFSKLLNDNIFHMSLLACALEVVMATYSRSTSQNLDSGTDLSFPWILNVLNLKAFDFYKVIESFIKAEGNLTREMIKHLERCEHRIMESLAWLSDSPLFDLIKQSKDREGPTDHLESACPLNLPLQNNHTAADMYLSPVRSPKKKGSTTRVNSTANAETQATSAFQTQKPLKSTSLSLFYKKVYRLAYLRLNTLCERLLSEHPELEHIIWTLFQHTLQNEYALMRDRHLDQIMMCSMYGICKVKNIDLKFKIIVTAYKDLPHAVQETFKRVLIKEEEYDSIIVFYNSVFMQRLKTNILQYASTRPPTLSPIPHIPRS

No end group written: not given here. TMR = tetramethyl rhodamine dye

B1: TMR-E2F1^TD, peptide of the E2F1 transactivation domain (peptide)
peptide: {TMR}-GEGIRDLFDCDFGDLTPLD
notes: also called E2F^TD; source: synthetic peptide, bought: GenScript
Regarding B1, the Kd with Rb^P T687I worked out at 0.04 µM; with Rb^P T664A, 0.024 µM; with Rb^P S612P, 0.049 µM; with Rb^P R741C, 0.064 µM; in the test with Rb^P E693A it was 0.059 µM.

B2: TMR-E7^LxCxE, LxCxE peptide of the E7 oncoprotein from HPV (peptide)
peptide: DLYCYEQLN
modifications: also: TMR label, position not given here
notes: source: synthetic peptide, bought: GenScript
Take B2: the Kd is 0.029 µM with Rb^P T687I; 0.016 µM in the test with Rb^P T664A; 0.017 µM in the test with Rb^P S612P; 0.023 µM with Rb^P R741C; 0.024 µM with Rb^P E693A.

The record behind these values is paper PMC11931385, “Structural and functional analysis of cancer-associated missense variants in the retinoblastoma protein pocket domain” (The Journal of Biological Chemistry, 2025).
